Results taken from the supplement of paper PMC10567573.

B1: CFHR2 (parent)
chain: FVENGHSESSGQTHLEGDTVQIIC

Variants of: B1
Experiment: protein stability index of a GFP-peptide fusion (GPS, HEK-293T) (PSI 1-6); higher = more stable
Conditions: c terminus: a fixed tail appended
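Also: lentivirally expressed fusions sorted by FACS into six bins by GFP to DsRed ratio, PSI derived from sequencing read proportions per bin multiplied by bin number.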

Protein stability index, by site and new letter:
H14: F 1.89; A 3.11; G 2.47; I 3.28; P 2.83; L 2.37; N 3.43; Y 2.52; T 3.08; M 2.35; S 3.02; Q 3.46; E 4.18; R 2.89; C 1.96; W 1.75; V 2.95; D 3.29; K 2.35
S10: F 1.97; Y 1.94; G 2.87; I 1.56; M 2.08; L 2.31; V 1.75; H 2.34; R 2.59; E 3.33; A 2.65; P 3.49; K 2.65; N 2.99; C 2; D 3.51; Q 2.77; T 2.73
I22: P 3.99; H 3.58; Q 3.74; Y 3.1; W 1.67; A 3.56; S 4.26; G 3.85; C 3.17; V 3.02; E 4.08; D 4.25; T 3.87; N 3.49; F 3.03; R 3.53; K 3.74; L 2.34; M 2.63
T13: S 2.95; C 2.55; W 1.85; E 3.3; L 2.29; D 3.43; Y 2.19; P 2.87; Q 3.18; F 1.88; H 2.34; G 3.03; N 3.35; R 2.47; V 2.24; M 2.19; I 2.06; A 2.54; K 2.48
V20: C 2.69; P 3.26; F 2.02; A 3.64; D 3.81; L 2.45; Y 2.71; W 1.57; E 4.03; Q 4.09; N 3.66; G 4; T 3.74; S 2.74; I 2.19; M 2.59; R 3.3; K 3.06; H 3.41
S7: V 2.39; A 2.72; Y 1.64; G 2.63; Q 3.04; R 2.29; D 3.09; W 4.33; F 1.43; L 3.1; P 3.12; M 2.19; H 2.75; N 3.14; T 3.24; K 2.84; C 2.34; E 3.87; I 2.42
E16: Q 2.33; N 2.15; S 2.71; R 2.63; P 2.42; V 1.76; M 2.14; H 1.86; T 2.62; K 2.19; A 2.13; D 3.12; I 2.25; C 1.82; L 2.59; G 2.01
G11: R 2.86; C 2.19; H 2.67; E 3.32; N 3.09; K 2.39; F 1.98; A 2.56; W 2.33; D 3.4; I 1.81; V 2.67; L 2.5; T 2.86; S 2.48; Y 2.04; M 2.03; Q 2.96; P 3.22
G17: R 2.52; E 4.47; N 2.9; F 1.8; D 3.46; Q 2.97; P 2.81; H 2.99; C 2.28; V 2.11; Y 1.73; S 2.77; A 2.3; M 2.29; T 2.91; K 2.54; W 1.79; L 2.08; I 2.05
L15: E 3.15; R 2.87; P 3.2; F 2.2; V 2.99; G 2.9; Y 2.76; I 2.69; C 2.78; N 3.49; M 3.13; H 3; S 3.22; K 3.25; A 3.22; W 1.53; D 3.4; T 3.12; Q 3.65
E8: K 1.97; T 2.16; P 2.51; C 1.82; F 1.64; W 3.2; H 2.08; M 1.57; A 2.15; S 2.32; I 1.57; N 2.18; Q 2.15; L 1.81; R 2.28; G 2.22; D 2.75; V 2.45; Y 2.29
S9: R 2.14; P 2.75; T 2.78; G 2.7; V 2.15; F 2.19; Y 1.66; H 2.77; Q 3.14; M 2.32; E 3.22; K 2.76; D 3.23; L 1.99; A 2.5; N 2.76; I 2.2; C 2.02
Q21: H 2.24; G 3.01; Y 2.58; K 2.83; L 1.17; T 2.79; D 3.69; F 1.91; I 1.82; A 3.11; M 1.92; P 3.04; R 2.9; S 2.91; V 1.85; C 2.18; N 3.29; E 3.15
D18: V 2.34; W 1.62; M 1.83; I 2.02; A 2.13; G 2.3; N 2.25; K 2.52; P 2.23; H 2.28; L 2.62; Q 2.47; C 1.65; T 2.31; E 2.76; F 2.33; Y 2.36; S 2.58; R 2.07
H6: R 2.85; T 2.79; S 2.92; W 2.7; V 2.74; P 3.18; Q 2.37; Y 1.93
Q12: Y 1.62; N 3.39; C 1.86; A 2.43; I 2.06; V 2.08; R 1.92; S 2.49; W 2.35; E 3.67; G 3.2; P 3.19; F 2.23; M 1.76; K 2.05; L 1.69; T 2.62; H 2.4; D 3.46
I23: N 3.77; F 2.1; P 3.24; W 2.35; Q 3.35; E 4.13; D 4.42; R 2.9; A 3.95; G 3.52; K 3.35; C 2.73; V 3.22; T 3.88; S 3.21; L 3.71; M 2.83; H 3.47; Y 2.11
C24: I 2.49; M 2.28; D 4.46; L 2.38; G 3.8; K 3.29; H 3.23; A 3.96; E 3.88; F 1.88
T19: C 2.84; K 2.82; E 3.09; R 2.37; S 3.21; Q 3.19; W 1.53; P 3.13; H 3.1; L 2.14; Y 2.24; N 3.71; I 2.62; G 3.25; V 3.3; F 2.66; D 3.68; M 2.33
